# Test results taken from US20090291081A1 (AbbVie / Abbott, published 2009).
# Numbering of substitutions follows the chain as printed. “And” between values parts separate entries of the source, which are not always exact repeats. Identical values can stand only once. Like-named read-outs stand apart in the source and are kept apart here.
# T1: human IL-1α (human, UniProt P01583 113-271)
# T1 construct: also called hIL-1α; rhIL-1 alpha
# T1 sequence (looked up): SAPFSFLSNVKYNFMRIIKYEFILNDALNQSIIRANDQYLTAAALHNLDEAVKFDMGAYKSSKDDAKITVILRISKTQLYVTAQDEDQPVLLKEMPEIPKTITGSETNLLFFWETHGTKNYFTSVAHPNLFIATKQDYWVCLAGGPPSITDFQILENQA
# B1: ABT2-65 (other)
# VH: EVQLLESGGGLVQPGGSLRLSCAASGFTFEDYQMGWVRQAPGKGLEWVSSISAMGNRTYYADSVKGRFTISRDDSKNTLYLQMNSLRAEDTAVYYCAKNLVRTQSKMWMFDYWGQGTLVTVSS
# notes: dAb, VH, to IL-1β; also called dAb ABT2-65
# B2: ABT2-46 (other)
# VL: DIQMTQSPSSLSASVGDRVTITCRASQSIIEWLSWYQQKPGKAPKLLIYRTSVLQSGVPSRFSGSGSGTDFTLTISSLQPEDFATYYCQQNEFWPFTFGQGTKVEIKR
# notes: dAb, Vκ, to IL-1β; also called dAb ABT2-46
# B3: ABT2-42 (other)
# VL: B2 VL with S28Y, I30E, E31K, S34T, K45T, T51G, V53L, N91T, F93Y
# notes: dAb, Vκ, to IL-1β; also called dAb ABT2-42
# B4: ABT2-76 (other)
# VL: B2 VL with I30D, E31R, S34A, T51G, V53I, N91V, E92A, F96P
# notes: dAb, Vκ, to IL-1β; also called dAb ABT2-76
# B5: ABT2-13 (other)
# VH: EVQLLESGGGLVQPGGSLRLSCAASGFTFRDYVMYWARQAPGKGLEWVSRIDPMGSSTYYADSVKGRFTISRDNSKNTLYLQMNSLRAEDTAVYYCAKPEGNFDYWGQGTLVTVSS
# notes: dAb, VH, to IL-1β; also called dAb ABT2-13
# B6: ABT2-108 (other)
# VH: EVQLLESGGGLVQPGGSLRLSCAASGFTFAEYTMMWVRQAPGKGLEWVSRIGQDGKNTYYADSVKGRFTISRDNSKNTLYLQMNSLRAEDTAVYYCAKYTGRVGVHHLFDYWGQGTLVTSS
# notes: dAb, VH, to IL-1β
# B7: ABT1-95-3 (other)
# VL: DIQMTQSPSSLSASVGDRVTITCRASQPIHGNLRWYQQKPGKAPKLLIYSSSYLQSGVPSRFSGSGSGTDFTLTISSLQPEDFATYHCQQGYRWPVTFGQGTKVEIKR
# notes: dAb, Vκ, to IL-1α
# B8: ABT2-108-620x/ABT1-95-A3 hu IgG1/K mut (234; 235) (bispecific antibody, V domains shown)
# VH: EVQLLESGGGLVQPGGSLRLSCAASGFTFAEESWMWVRQAPGKGLEWVSRIGQDGKNTYYREDVKGRFTISRDNSKNTLYLQMNSLRAEDTAVYYCAKYTGRIMGHHLFDYWGQGTLVTVSS
# VL: B7 VL with Q27K, I29G, H30V, G31R, L33M, S51V, Q55E, S56P, Q89L, V96P
# notes: hu IgG1/K mut (234)
# B9: ABT1-95-13 (other)
# VL: B7 VL with H30V, G31R, Q55E, S56R
# notes: dAb, Vκ, to IL-1α
# B10: ABT1-95-8 (other)
# VL: B7 VL with H30Q, Q55E, S56R
# notes: dAb, Vκ, to IL-1α
# B11: ABT1-95-15 (other)
# VL: B7 VL with H30V, G31R, Q55E, S56P
# notes: dAb, Vκ, to IL-1α
# B12: ABT1-95-14 (other)
# VL: B7 VL with H30V, G31K, Q55E, S56R
# notes: dAb, Vκ, to IL-1α
# B13: ABT1-141 (other)
# VL: B7 VL with P28W, H30Q, G31K, N32Q, R34A, H87Y, G91H, Y92L, W94V, V96F
# notes: dAb, Vκ, to IL-1α; also called dAb ABT1-141
# Legend:
# human IL-1β [1] = target: T2, human IL-1β (human, UniProt P01584 117-269); experiment: cell-based or functional assay
# human IL-1β [2] = target: T2, human IL-1β; experiment: cell-based or functional assay; remark: listed apart in the source
# human IL-1β [3] = target: T2, human IL-1β; experiment: BIAcore kinetic analysis of the dAb
# human IL-1β [4] = target: T2, human IL-1β; experiment: BIAcore kinetic analysis of the dAb; remark: listed apart in the source
# human IL-1β [5] = target: T2, human IL-1β; experiment: BIAcore kinetic analysis of the dAb; remark: listed apart in the source
# human IL-1β [6] = target: T2, human IL-1β; experiment: BIAcore kinetic analysis of the dAb; remark: listed apart in the source
# human IL-1β [7] = target: T2, human IL-1β; experiment: BIAcore kinetic analysis of the dAb; remark: listed apart in the source
# human IL-1β [8] = target: T2, human IL-1β; experiment: BIAcore kinetic analysis of the dAb; remark: listed apart in the source
# human IL-1α [9] = target: T1, human IL-1α; experiment: BIAcore, purified dAb
# human IL-1α [10] = target: T1, human IL-1α; experiment: cell-based or functional assay
# human IL-1α [11] = target: T1, human IL-1α; experiment: method not given
# human IL-1α [12] = target: T1, human IL-1α; experiment: BIAcore, IL-1α coated chip, dAb flowed over
# human IL-1α [13] = target: T1, human IL-1α; experiment: cell-based or functional assay; remark: listed apart in the source
# human IL-1β [14] = target: T2, human IL-1β; experiment: cell-based or functional assay; remark: listed apart in the source
# human IL-1α [15] = target: T1, human IL-1α; experiment: cell-based or functional assay; remark: listed apart in the source
# human IL-1β [16] = target: T2, human IL-1β; experiment: cell-based or functional assay; remark: listed apart in the source
# human IL-1α [17] = target: T1, human IL-1α; experiment: Biacore, IgG captured by goat anti-human IgG Fc
# human IL-1β [18] = target: T2, human IL-1β; experiment: Biacore, IgG captured by goat anti-human IgG Fc
# human IL-1β [19] = target: T2, human IL-1β; experiment: Biacore, IgG captured by goat anti-human IgG Fc; rhIL-1 beta followed by rhIL-1 alpha
# Protocol: (§1) The antibody (1-5 ug/ml) was first captured on a goat anti human IgG FC surface.
# human IL-1α [20] = target: T1, human IL-1α; experiment: Biacore, IgG captured by goat anti-human IgG Fc; rhIL-1 alpha 100 nM then rhIL-1 beta 200 nM
# Protocol: as §1
# human IL-1β [21] = target: T2, human IL-1β; experiment: as above
# Protocol: as §1
# human IL-1α [22] = target: T1, human IL-1α; experiment: BIAcore, purified dAb; remark: listed apart in the source
# human IL-1α [23] = target: T1, human IL-1α; experiment: cell-based or functional assay; remark: listed apart in the source
# human IL-1α [24] = target: T1, human IL-1α; experiment: IL-1 Receptor Binding Assay
# human IL-1α [25] = target: T1, human IL-1α; experiment: cell-based or functional assay; remark: listed apart in the source
# human IL-1α [26] = target: T1, human IL-1α; experiment: cell-based or functional assay; remark: listed apart in the source
# human IL-1α [27] = target: T1, human IL-1α; experiment: BIAcore kinetic analysis of the dAb
binder,measurement,setting,value
B1,MRC5 ND50,human IL-1β [1],266 nM
same,MRC5 ND10,human IL-1β [2],100 nM
same,MRC5 ND50,human IL-1β [2],266 nM
same,Kd,human IL-1β [3],97 nM
same,koff,human IL-1β [3],0.02 s⁻¹
same,kon,human IL-1β [3],250000 M⁻¹ s⁻¹
B2,MRC5 ND10,human IL-1β [2],70 nM
same,MRC5 ND50,human IL-1β [2],386 nM
same,Kd,human IL-1β [4],2800 nM
same,koff,human IL-1β [4],0.063 s⁻¹
same,kon,human IL-1β [4],23000 M⁻¹ s⁻¹
B3,MRC5 ND10,human IL-1β [2],100 nM
same,MRC5 ND50,human IL-1β [2],770 nM
same,Kd,human IL-1β [5],54000 nM
same,koff,human IL-1β [5],0.13 s⁻¹
same,kon,human IL-1β [5],2500 M⁻¹ s⁻¹
B4,MRC5 ND10,human IL-1β [2],50 nM
same,MRC5 ND50,human IL-1β [2],456 nM
same,Kd,human IL-1β [6],1300 nM
same,koff,human IL-1β [6],0.027 s⁻¹
same,kon,human IL-1β [6],20000 M⁻¹ s⁻¹
B5,MRC5 ND10,human IL-1β [2],100 nM
same,MRC5 ND50,human IL-1β [2],800 nM
same,Kd,human IL-1β [7],930 nM
same,koff,human IL-1β [7],0.075 s⁻¹
same,kon,human IL-1β [7],81000 M⁻¹ s⁻¹
B6,MRC5 ND10,human IL-1β [2],150 nM
same,MRC5 ND50,human IL-1β [2],250 nM
same,Kd,human IL-1β [8],110 nM
same,koff,human IL-1β [8],0.0031 s⁻¹
same,kon,human IL-1β [8],29000 M⁻¹ s⁻¹
B7,Kd,human IL-1α [9],5.4 nM
same,MRC5 ND50,human IL-1α [10],50 nM
same,Kd,human IL-1α [11],5 to 10 nM
same,Kd,human IL-1α [12],7 to 12 nM
B8,IC50 (MRC-5 neutralization assay),human IL-1α [13],< 0.001 nM
same,MRC-5 IL-1a inhibition assay EC50,human IL-1α [13],0.00446 nM
same,IC50 (MRC-5 neutralization assay),human IL-1β [14],0.00558 nM
same,IL-1α IC50,human IL-1α [15],0.002 nM
same,IL-1β IC50,human IL-1β [16],0.0073 nM
same,Kd,human IL-1α [17],0.0887 nM and 0.0835 nM
same,koff,human IL-1α [17],4.25e-05 s⁻¹ and 4.11e-05 s⁻¹
same,kon,human IL-1α [17],479000 M⁻¹ s⁻¹ and 492000 M⁻¹ s⁻¹
same,Kd,human IL-1β [18],0.446 nM and 0.361 nM
same,koff,human IL-1β [18],0.000138 s⁻¹ and 0.000102 s⁻¹
same,kon,human IL-1β [18],315000 M⁻¹ s⁻¹ and 283000 M⁻¹ s⁻¹
same,Kd,human IL-1β [18]; mean,0.404 nM
same,koff,human IL-1β [18]; mean,0.00012 s⁻¹
same,kon,human IL-1β [18]; mean,299000 M⁻¹ s⁻¹
same,stoichiometry,human IL-1β [19],0.98
same,stoichiometry,human IL-1α [20],2
same,stoichiometry,human IL-1β [21],0.9
B9,Kd,human IL-1α [22],0.95 nM
same,ND50,human IL-1α [23],120 pM
same,MRC5 ND50,human IL-1α [10],0.11 nM
B10,MRC5 ND50,human IL-1α [10],0.9 nM
same,IC50,human IL-1α [24],1 nM
same,Kd,human IL-1α [11],0.9 nM
B11,Kd,human IL-1α [22],0.67 nM
same,ND50,human IL-1α [23],45 pM
B12,Kd,human IL-1α [22],1.2 nM
same,ND50,human IL-1α [23],250 pM
same,MRC5 ND50,human IL-1α [10],0.25 nM
B13,MRC5 ND50,human IL-1α [25],70 nM
same,MRC5 ND10,human IL-1α [26],10 nM
same,MRC5 ND50,human IL-1α [26],70 nM
same,Kd,human IL-1α [27],300 nM
same,koff,human IL-1α [27],0.0039 s⁻¹
same,kon,human IL-1α [27],13000 M⁻¹ s⁻¹
